# Measured values as given in patent publication US20100280227A1 (Genentech, published 2010).
# Several values for one entry are separate records, joined by “and”; a condition that tells them apart may be missing. Identical values can stand only once. Like-named read-outs stand apart in the source and are kept apart here.
# T1: mouse BR3 extracellular domain (mouse, UniProt Q9D8D0 1-64)
# T1 construct: also called mBR3-ECD; mBR-ECD
# T1 sequence: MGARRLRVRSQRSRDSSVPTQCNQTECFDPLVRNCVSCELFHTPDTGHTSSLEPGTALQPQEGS
# Key:
# [1] = molecular target: T2, variant human BR3-Fc fusion; test: SPR, vBR3-Fc on chip;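 also: Anti-BR3 antibodies passed over chip-bound BR3-Fc in PBS with 0.05% polysorbate 20, on and off rates fitted together globally to a 1:1 binding model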
# T2 construct: produced in CHO cells; also called vBR3-Fc; vhBR3-Fc
# Experimental: After coupling, unoccupied sites on the chip were blocked by injecting 20 μl of 1M ethanolamine, pH 8.5. The running buffer was PBS containing 0.05% polysorbate 20. […] The binding surface was regenerated by injecting 20-30 μl of 10 mM glycine.HCl (pH 1.5). […] Data were analyzed using a 1:1 binding model using global fitting. The association and dissociation rate constants were fitted simultaneously (BIAevaluation software).
# A high flow rate was used in order to minimize mass transport effects.
# [2] = molecular target: T3, human BR3 extracellular domain (human, UniProt Q96RJ3 1-61); test: SPR, BR3 ECD on chip;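 also: Anti-BR3 antibodies passed over the chip at high flow in PBS with 0.05% polysorbate 20, on and off rates fitted together globally to a 1:1 binding model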
# T3 construct: biotinylated where used as tracer; also called hBR3-ECD; BR3-ECD
# [3] = molecular target: T3, human BR3 extracellular domain; test: phage competition ELISA
# [4] = molecular target: T1, mouse BR3 extracellular domain; test: phage competition ELISA
Binder,Kd ([1]; 140 RU BR3-Fc immobilized),Kd ([1]; 380 RU BR3-Fc immobilized),Kd [2],koff [2],kon [2],Kd [1],koff [1],kon [1],IC50 [3],IC50 [4]
"Hu2.1-46 Fab (Fab, V domains shown, Fab) VH: EVQLVESGGGLVQPGGSLRLSCAASGDSITRGYWNWVRQAPGKGLEWVGYINYSGTTYYNPSLKSRFTISRDTSKNTFYLQMNSLRAEDTAVYYCANSNFYGAMDYWGQGTLVTVSS VL: DIQMTQSPSSLSASVGDRVTITCRASESVDDYGISFMHWYQQKPGKAPKLLIYRASDLESGVPSRFSGSGSGTDFTLTISSLQPEDFATYYCQQTSKDPWTFGQGTKVEIKR",–,–,0.27 nM,0.000693 s⁻¹,2.55e+06 M⁻¹ s⁻¹,0.13 nM,0.000257 s⁻¹,1.96e+06 M⁻¹ s⁻¹,–,–
"Hu2.1-40 Fab (Fab, V domains shown, Fab) VH: EVQLVESGGGLVQPGGSLRLSCAASGDSITRGYWNWVRQAPGKGLEWVGYINYSGTTYYNPSLKSRFTISRDTSKNTFYLQMNSLRAEDTAVYYCATTLPYGAMDYWGQGTLVTVSS VL: DIQMTQSPSSLSASVGDRVTITCRASESVDDYGISFMHWYQQKPGKAPKLLIYRASDLESGVPSRFSGSGSGTDFTLTISSLQPEDFATYYCQQTSKDPWTFGQGTKVEIKR",–,–,8.67 nM,0.000923 s⁻¹,110000 M⁻¹ s⁻¹,3.2 nM,0.00123 s⁻¹,380000 M⁻¹ s⁻¹,–,–
"Hu2.1-40L Fab (Fab, V domains shown, Fab) VH: EVQLVESGGGLVQPGGSLRLSCAASGDSITRGYWNWVRQAPGKGLEWVGYINYSGTTYYNPSLKSRFTISRDTSKNTLYLQMNSLRAEDTAVYYCATTLPYGAMDYWGQGTLVTVSS VL: DIQMTQSPSSLSASVGDRVTITCRASESVDDYGISFMHWYQQKPGKAPKLLIYRASDLESGVPSRFSGSGSGTDFTLTISSLQPEDFATYYCQQTSKDPWTFGQGTKVEIKR",–,–,35.8 nM,0.00156 s⁻¹,40000 M⁻¹ s⁻¹,3.49 nM,0.00121 s⁻¹,350000 M⁻¹ s⁻¹,–,–
"Hu2.1-30 Fab (Fab, V domains shown, Fab) VH: EVQLVESGGGLVQPGGSLRLSCAASGDSITRGYWNWVRQAPGKGLEWVGYINYSGTTYYNPSLKSRFTISRDTSKNTFYLQMNSLRAEDTAVYYCANLNYYGAMDYWGQGTLVTVSS VL: DIQMTQSPSSLSASVGDRVTITCRASESVDDYGISFMHWYQQKPGKAPKLLIYRASDLESGVPSRFSGSGSGTDFTLTISSLQPEDFATYYCQQTSKDPWTFGQGTKVEIKR",–,–,0.08 nM and 0.059 nM,0.000311 s⁻¹ and 0.000232 s⁻¹,3.84e+06 M⁻¹ s⁻¹ and 3.94e+06 M⁻¹ s⁻¹,0.07 nM and 0.092 nM,0.000157 s⁻¹ and 0.000222 s⁻¹,2.18e+06 M⁻¹ s⁻¹ and 2.41e+06 M⁻¹ s⁻¹,–,–
"3 (Fab, V domains shown, also called V3-3) VH: EVQLVESGGGLVQPGGSLRLSCAASGFTISSNSIHWVRQAPGKGLEWVAWVTPSGGSTDYADSVKGRFTISADTSKNTAYLQMNSLRAEDTAVYYCARRVCYNRLGVCAGGMDYWGQGTLVTVSS VL: DIQMTQSPSSLSASVGDRVTITCRASQDVSTAVAWYQQKPGKAPKLLIYSASFLYSGVPSRFSGSGSGTDFTLTISSLQPEDFATYYCQQSRISPPTFGQGTKVEIKR",–,–,–,–,–,–,–,–,1.3 nM,16.1 nM
"9 (Fab, V domains shown, also called V3-9) VH: EVQLVESGGGLVQPGGSLRLSCAASGFTISSNSIHWVRQAPGKGLEWVAWITPSDGNTDYADSVKGRFTISADTSKNTAYLQMNSLRAEDTAVYYCARRVCYNRLGVCAGGMDYWGQGTLVTVSS VL: DIQMTQSPSSLSASVGDRVTITCRASQDVSTAVAWYQQKPGKAPKLLIYSASFLYSGVPSRFSGSGSGTDFTLTISSLQPEDFATYYCQQSHNTPPTFGQGTKVEIKR",–,–,–,–,–,–,–,–,11.6 nM,6.1 nM
"5 (Fab, V domains shown, also called V3-5) VH: EVQLVESGGGLVQPGGSLRLSCAASGFTISSSSIHWVRQAPGKGLEWVAWITPGHGSTDYADSVKGRFTISADTSKNTAYLQMNSLRAEDTAVYYCARRVCYNRLGVCAGGMDYWGQGTLVTVSS VL: DIQMTQSPSSLSASVGDRVTITCRASQDVSTAVAWYQQKPGKAPKLLIYSASFLYSGVPSRFSGSGSGTDFTLTISSLQPEDFATYYCQQSRITPPTFGQGTKVEIKR",–,–,–,–,–,–,–,–,2.5 nM,40.9 nM

# More lines, now with the values ahead:
Kd ([1]; 140 RU BR3-Fc immobilized),Kd ([1]; 380 RU BR3-Fc immobilized),Kd [2],koff [2],kon [2],Kd [1],koff [1],kon [1],IC50 [3],IC50 [4],Binder
20 nM,21.8 nM,–,–,–,–,–,–,–,–,"chimeric 9.1 Fab (Fab, V domains shown, Fab with murine variable domains; also called Ch 9.1 Fab) VH: EVKLVESGGGLVQPGGSLRLSCAISGFTVTAYYMSWVRQPPGKALEWLGFIRDKANGYTTEYNPSVKGRFTISRDNSQSIFYLQMNTLRAEDSATYYCAQVRRALDYWGQGTTVTVSA VL: DIVMSQSPSSLAVSVGEKVTMSCKSSQSLLYSSNQNNYLAWYQQKPGQSPKLLIYWASTRESGVPDRFTGSGSGTDFTLTISSVKAEDLAVYYCQQYYTYPYTFGGGT"
–,–,0.82 nM,0.00114 s⁻¹,1.39e+06 M⁻¹ s⁻¹,1.67 nM,0.000804 s⁻¹,480000 M⁻¹ s⁻¹,–,–,"Hu2.1-94 Fab (Fab, V domains shown, Fab) VH: EVQLVESGGGLVQPGGSLRLSCAASGDSITRGYWNWVRQAPGKGLEWVGYINYSGTTYYNPSLKSRFTISRDTSKNTLYLQMNSLRAEDTAVYYCATSHNTGEMDYWGQGTLVTVSS VL: DIQMTQSPSSLSASVGDRVTITCRASESVDDYGISFMHWYQQKPGKAPKLLIYRASDLESGVPSRFSGSGSGTDFTLTISSLQPEDFATYYCQQTSKDPWTFGQGTKVEIKR"
–,–,10 nM,0.00176 s⁻¹,180000 M⁻¹ s⁻¹,11.2 nM,0.00139 s⁻¹,120000 M⁻¹ s⁻¹,–,–,"Hu2.1-RL Fab (Fab, V domains shown, Fab) VH: EVQLVESGGGLVQPGGSLRLSCAASGDSITRGYWNWVRQAPGKGLEWVGYINYSGTTYYNPSLKSRFTISRDTSKNTLYLQMNSLRAEDTAVYYCATPHTYGAMDYWGQGTLVTVSS VL: DIQMTQSPSSLSASVGDRVTITCRASESVDDYGISFMHWYQQKPGKAPKLLIYRASDLESGVPSRFSGSGSGTDFTLTISSLQPEDFATYYCQQTSKDPWTFGQGTKVEIKR"
–,–,0.7 nM and 0.65 nM,0.00105 s⁻¹ and 0.000954 s⁻¹,1.49e+06 M⁻¹ s⁻¹ and 1.47e+06 M⁻¹ s⁻¹,2.31 nM and 2.08 nM,0.00104 s⁻¹ and 0.000968 s⁻¹,450000 M⁻¹ s⁻¹ and 466000 M⁻¹ s⁻¹,–,–,"Hu11G9-36 Fab (Fab, V domains shown, Fab) VH: EVQLVESGGGLVQPGGSLRLSCAASGDSINFGYWNWVRQAPGKGLEWVGYISYSGSTYYNPSLKSRFTISRDTSKNTFYLQMNSLRAEDTAVYYCAALNDLFLYFDVWGQGTLVTVSS VL: DIQMTQSPSSLSASVGDRVTITCRSSQSLVHSNGNTYLHWYQQKPGKAPKLLIYKVSNRFSGVPSRFSGSGSGTDFTLTISSLQPEDFATYYCSQSTHVPPFTFGQGTKVEIKR"
–,–,0.025 nM,4.2e-05 s⁻¹,1.66e+06 M⁻¹ s⁻¹,0.288 nM,0.000186 s⁻¹,648000 M⁻¹ s⁻¹,–,–,"Hu11G9-46 IgG (antibody, V domains shown, humanized IgG) VH: EVQLVESGGGLVQPGGSLRLSCAASGDSITSGYWNWVRQAPGKGLEWVGYISYSGSTYYNPSLKSRFTISRDTSKNTFYLQMNSLRAEDTAVYYCAGLNDLYLYFDVWGQGTLVTVSS VL: DIQMTQSPSSLSASVGDRVTITCRSSQSLVHSNGNTYLHWYQQKPGKAPKLLIYKVSNRFSGVPSRFSGSGSGTDFTLTISSLQPEDFATYYCSQSTHVPPFTFGQGTKVEIKR"
–,–,0.024 nM,4.1e-05 s⁻¹,1.71e+06 M⁻¹ s⁻¹,0.4 nM,0.000231 s⁻¹,576000 M⁻¹ s⁻¹,–,–,"Hu11G9-36 IgG (antibody, V domains shown, humanized IgG) VH: EVQLVESGGGLVQPGGSLRLSCAASGDSINFGYWNWVRQAPGKGLEWVGYISYSGSTYYNPSLKSRFTISRDTSKNTFYLQMNSLRAEDTAVYYCAALNDLFLYFDVWGQGTLVTVSS VL: DIQMTQSPSSLSASVGDRVTITCRSSQSLVHSNGNTYLHWYQQKPGKAPKLLIYKVSNRFSGVPSRFSGSGSGTDFTLTISSLQPEDFATYYCSQSTHVPPFTFGQGTKVEIKR"
